Numbering of substitutions follows the chain as printed.
Target: T1, human CD27-HisFc fusion protein (human, UniProt P26842 20-192)
T1 construct: also called CD27-HisFc (Sino Biological #10039-H03H); not shown: His tag and Fc
T1 sequence (looked up): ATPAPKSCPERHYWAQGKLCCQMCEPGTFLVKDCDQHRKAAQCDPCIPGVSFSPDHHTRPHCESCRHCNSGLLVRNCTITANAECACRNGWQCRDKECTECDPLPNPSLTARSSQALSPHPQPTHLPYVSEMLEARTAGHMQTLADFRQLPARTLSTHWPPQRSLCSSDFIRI
Assay: BLI (Octet RED96), CD27-HisFc captured on AHC sensor, Fab in solution
Protocol: A histidine tag was added to each unique sequence of the antibody Fab fragment at the C-terminal, and the antibody Fab fragment was overexpressed in an E. coli expression system, and then purified by using Ni-NTA affinity resin. […] The collected data was processed by Data Acquisition 7.1 software and fitted to a 1:1 combined Langmuir model curve. The mAb076 and mAb077 antibodies were the two antibodies with optimal binding and were selected for further analysis and development experiments.

B1: mAb076 antibody Fab fragment with C-terminal histidine tag (Fab, V domains shown)
VH: EVQLVESGGGLVQPGGSLRLSCAASGFTFSDYGIHWVRQAPGKGLEWIGWINPNRGSTNYAQKFQGRVTISRDNSKNTLYLQLNSLRAEDTAVYYCARDYGYTWYFDVWGQGTLVTVSS
VL: DIQLTQSPSSLSASVGDRVTITCRASQDISSVLAWYQQKPGKAPKLLIYAASSLQSGVPSRFSGSGSGTDFTLTISSLQPEDFATYYCQQRDAWPLTFGQGTKVEIK
binding result: binds

B2: mAb077 antibody Fab fragment with C-terminal histidine tag (Fab, V domains shown)
VH: B1 VH with D31G, N59K, Y100P
VL: B1 VL with V32D, S53T, L96P
binding result: binds

From US20190225698A1 (JIANGSU HENGRUI MEDICINE, published 2019)
